From US20230416363A1 (KADMON, published 2023)
Numbering of substitutions follows the chain as printed.

B1: 2C-m3A7/IL-15 (other)
light: DIQMTQSPSSLSASVGDRVTITCRASRSISNWLAWYQQKPGKAPKLLIYAASSLQSGVPSRFSGSGSGTDFTLTISSLQPEDFATYYCQQSYSAPVTFGQGTKVEIKRADAAPTVSIFPPSSEQLTSGGASVVCFLNNFYPKDINVKWKIDGSERQNGVLNSWTDQDSKDSTYSMSSTLTLTKDEYERHNSYTCEATHKTSTSPIVKSFNRNEC
heavy: QVQLVQSGAEVKKPGASVKVSCKASGHTFTSYYIHWVRQAPGQGLEWMGIINPSGGSTSYAQKFQGRVTMTRDTSTSTVYMELSSLRSEDTAVYYCARDRAYGGAGDYWGQGTLVTVSSAKTTAPSVYPLAPVCGDTTGSSVTLGCLVKGYFPEPVTLTWNSGSLSSGVHTFPAVLQSDLYTLSSSVTVTSSTWPSQSITCNVAHPASSTKVDKKIEPRGPTIKPCPPCKCPAPNAAGGPSVFIFPPKIKDVLMISLSPIVTCVVVDVSEDDPDVQISWFVNNVEVHTAQTQTHREDYNSTLRVVSALPIQHQDWMSGKEFKCKVNNKDLGAPIERTISKPKGSVRAPQVYVLPPPEEEMTKKQVTLTCMVTDFMPEDIYVEWTNNGKTELNYKNTEPVLDSDGSYFMYSKLRVEKKNWVERNSYSCSVVHEGLHNHHTTKSFSRTPGSCPPPVSIEHADIRVKNYSVNSRERYVCNSGFKRKAGTSTLIECVINKNTNVAHWTTPSLKCIRDPALVHQRPAPPSGGSGGGGSGGGSGGGGSLQNWIDVRYDLEKIESLIQSIHIDTTLYTDSDFHPSCKVTAMNCFLLELQVILHEYSNMTLNETVRNVLYLANSTLSSNKNVAESGCKECEELEEKTFTEFLQSFIRIVQMFINTS
notes: antibody-cytokine fusion
B2: 1C-m3A7/IL-15 (other)
light: B1 light
heavy 1: QVQLVQSGAEVKKPGASVKVSCKASGHTFTSYYIHWVRQAPGQGLEWMGIINPSGGSTSYAQKFQGRVTMTRDTSTSTVYMELSSLRSEDTAVYYCARDRAYGGAGDYWGQGTLVTVSSAKTTAPSVYPLAPVCGDTTGSSVTLGCLVKGYFPEPVTLTWNSGSLSSGVHTFPAVLQSDLYTLSSSVTVTSSTWPSQSITCNVAHPASSTKVDKKIEPRGPTIKPCPPCKCPAPNAAGGPSVFIFPPKIKDVLMISLSPIVTCVVVDVSEDDPDVQISWFVNNVEVHTAQTQTHREDYNSTLRVVSALPIQHQDWMSGKEFKCKVNNKDLGAPIERTISKPKGSVRAPQVYVYPPPEEEMTKKQVTLTCMVTDFMPEDIYVEWTNNGKTELNYKNTEPVLDSDGSYAMVSKLRVEKKNWVERNSYSCSVVHEGLHNHHTTKSFSRTPGK
heavy 2: B1 heavy with T368L, K394L, T396W
notes: antibody-cytokine fusion
B3: 1N-m3A7/IL-15 (other)
light: B1 light
heavy 1: B2 heavy 1
heavy 2: ITCPPPVSIEHADIRVKNYSVNSRERYVCNSGFKRKAGTSTLIECVINKNTNVAHWTTPSLKCIRDPALVHQRPAPPSGGSGGGGSGGGSGGGGSLQNWIDVRYDLEKIESLIQSIHIDTTLYTDSDFHPSCKVTAMNCFLLELQVILHEYSNMTLNETVRNVLYLANSTLSSNKNVAESGCKECEELEEKTFTEFLQSFIRIVQMFINTSGGGGSGGGGSGGGGSGGGGSGGGGSGGGGSQVQLVQSGAEVKKPGASVKVSCKASGHTFTSYYIHWVRQAPGQGLEWMGIINPSGGSTSYAQKFQGRVTMTRDTSTSTVYMELSSLRSEDTAVYYCARDRAYGGAGDYWGQGTLVTVSSAKTTAPSVYPLAPVCGDTTGSSVTLGCLVKGYFPEPVTLTWNSGSLSSGVHTFPAVLQSDLYTLSSSVTVTSSTWPSQSITCNVAHPASSTKVDKKIEPRGPTIKPCPPCKCPAPNAAGGPSVFIFPPKIKDVLMISLSPIVTCVVVDVSEDDPDVQISWFVNNVEVHTAQTQTHREDYNSTLRVVSALPIQHQDWMSGKEFKCKVNNKDLGAPIERTISKPKGSVRAPQVYVLPPPEEEMTKKQVTLLCMVTDFMPEDIYVEWTNNGKTELNYLNWEPVLDSDGSYFMYSKLRVEKKNWVERNSYSCSVVHEGLHNHHTTKSFSRTPGK
notes: antibody-cytokine fusion
B4: 2N-m3A7/IL-15 (other)
light: B1 light
heavy: B3 heavy 2 with L609T, L635K, W637T
notes: antibody-cytokine fusion
B5: m2C1 (antibody, V domains shown)
VH: QVQLVQSGAEVKKPGASVKVSCKASGHTFTSYYIHWVRQAPGQGLEWMGIINPSGGSTSYAQKFQGRVTMTRDTSTSTVYMELSSLRSEDTAVYYCARDRAYGGAGDYWGQGTLVTVSS
VL: DIQMTQSPSSLSASVGDRVTITCRASRSISSWLAWYQQKPGKAPKLLIYAASSLQSGVPSRFSGSGSGTDFTLTISSLQPEDFATYYCQQSYSIPATFGQGTKVEIK
notes: R3A9 derivative; also called m3CM (apparent misprint)
B6: m2A1 (antibody, V domains shown)
VH: B5 VH
VL: B5 VL with S28G, I94P, A96W
notes: R3A9 derivative; also called m2AM (apparent misprint)

Columns and labels:
[1] = molecular target: T1, mouse PD-1 expressed on cells (mouse, UniProt Q02242 25-288); assay: flow cytometry on mPD-1-HEK293 cells
T1 construct: whole, on cells
T1 sequence (looked up): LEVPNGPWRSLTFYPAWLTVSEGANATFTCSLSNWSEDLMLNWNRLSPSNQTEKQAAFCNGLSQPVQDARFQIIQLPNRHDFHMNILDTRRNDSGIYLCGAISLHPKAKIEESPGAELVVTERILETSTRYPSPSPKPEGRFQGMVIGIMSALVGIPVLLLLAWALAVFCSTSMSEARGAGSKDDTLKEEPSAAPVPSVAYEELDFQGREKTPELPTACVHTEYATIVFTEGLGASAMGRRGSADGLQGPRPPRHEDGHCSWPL

[2] = molecular target: T1, mouse PD-1 expressed on cells; assay: cell-based or functional assay
[3] = molecular target: T2, mPD1 (soluble, ELISA of Examples 20 and 24) (mouse, UniProt Q02242 25-167, limits assumed); assay: ELISA, dose-response binding to mPD-1
T2 construct: also called Biotin-mPD1
T2 sequence (looked up): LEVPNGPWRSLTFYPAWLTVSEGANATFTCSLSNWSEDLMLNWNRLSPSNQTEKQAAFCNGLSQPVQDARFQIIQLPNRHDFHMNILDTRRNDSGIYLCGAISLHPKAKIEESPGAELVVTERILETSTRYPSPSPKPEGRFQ

mPD-1-his [4] = molecular target: T3, mPD-1-his (mouse, UniProt Q02242 25-167, limits assumed); assay: kinetics (Ka/Kd/KD; method not named), mPD-1-his
T3 construct: domain: IgV domain
T3 sequence: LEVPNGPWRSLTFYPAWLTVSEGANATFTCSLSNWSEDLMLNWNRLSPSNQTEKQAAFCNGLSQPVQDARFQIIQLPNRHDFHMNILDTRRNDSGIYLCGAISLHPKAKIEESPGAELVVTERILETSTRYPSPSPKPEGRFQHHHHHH

mPD-1-Fc [5] = molecular target: T4, mPD-1-Fc (mouse; human, UniProt Q02242 25-167, limits assumed); assay: kinetics, mPD-1-Fc (off rate outside the machine limit)
T4 construct: domain: IgV domain; not shown: human IgG1 Fc
T4 sequence (looked up): T2 sequence (looked up)

[6] = molecular target: T2, mPD1 (soluble, ELISA of Examples 20 and …); assay: competition ELISA, blocking of mPD-L1 binding to mPD-1
[7] = molecular target: T5, hPD1 (soluble, ELISA of Example 20) (human, UniProt Q15116 25-167, limits assumed); assay: blocking ELISA, hPD1 to hPDL1
[8] = molecular target: T6, human PD-1 expressed on cells (human, UniProt Q15116 25-288); assay: cell-based or functional assay
[9] = molecular target: T1, mouse PD-1 expressed on cells; assay: cell-based or functional assay; remark: listed apart in the source
mPD-1-Fc [10] = molecular target: T4, mPD-1-Fc; assay: SPR Biacore, mPD1-Fc
[11] = molecular target: T2, mPD1 (soluble, ELISA of Examples 20 and …); assay: ELISA, biotin-mPD1 on streptavidin
[12] = molecular target: T2, mPD1 (soluble, ELISA of Examples 20 and …); assay: ELISA, mPD1
[13] = molecular target: T6, human PD-1 expressed on cells; assay: flow cytometry, hPD1-293 cells
[14] = molecular target: T5, hPD1 (soluble, ELISA of Example 20); assay: ELISA, hPD1
mPD-1-his [15] = molecular target: T3, mPD-1-his; assay: SPR Biacore, mPD1-his
[16] = molecular target: T1, mouse PD-1 expressed on cells; assay: flow cytometry, mPD1-eff cells
hPD-1-Fc = molecular target: T7, hPD-1-Fc (human, UniProt Q15116 25-167); assay: SPR Biacore, hPD1-Fc
T7 construct: domain: IgV domain; also called human PD-1-Fc; not shown: human IgG1 Fc

[17] = molecular target: T2, mPD1 (soluble, ELISA of Examples 20 and …); assay: blocking ELISA, mPD1 to mPDL1
[18] = molecular target: T1, mouse PD-1 expressed on cells; assay: flow cytometry, mPD1-293 cells

T5 sequence (Q15116 25-167 limits assumed): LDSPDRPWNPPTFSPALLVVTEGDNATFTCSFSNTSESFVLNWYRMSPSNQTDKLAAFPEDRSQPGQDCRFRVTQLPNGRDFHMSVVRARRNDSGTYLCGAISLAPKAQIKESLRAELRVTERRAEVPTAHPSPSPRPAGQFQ
T7 sequence (Q15116 25-167 limits assumed): as above
T6 sequence (Q15116 25-288): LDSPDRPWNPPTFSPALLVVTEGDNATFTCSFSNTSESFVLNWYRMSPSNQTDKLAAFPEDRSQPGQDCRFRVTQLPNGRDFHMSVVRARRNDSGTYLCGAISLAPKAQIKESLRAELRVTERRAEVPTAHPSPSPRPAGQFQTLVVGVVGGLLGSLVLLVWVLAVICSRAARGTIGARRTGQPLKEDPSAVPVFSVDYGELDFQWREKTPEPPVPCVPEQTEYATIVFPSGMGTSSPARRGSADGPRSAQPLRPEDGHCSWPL

Binder	EC50 (read off the curve) [1] [nM]	EC50 (read off the curve) [2] [nM]	EC50 (read off the curve) [3] [nM]	Kd (mPD-1-his [4]) [nM]	Kd (mPD-1-Fc [5]) [nM]	IC50 (read off the curve) [6] [nM]	IC50 [7] [nM]	Kd (mPD-1-Fc [10]) [nM]	koff (mPD-1-Fc [10]) [s⁻¹]	kon (mPD-1-Fc [10]) [M⁻¹ s⁻¹]	EC50 [11] [nM]	EC50 [12] [nM]	EC50 [13] [nM]	EC50 [14] [nM]	Kd (mPD-1-his [15]) [nM]	koff (mPD-1-his [15]) [s⁻¹]	kon (mPD-1-his [15]) [M⁻¹ s⁻¹]	EC50 [16] [nM]	Kd (hPD-1-Fc) [nM]	koff (hPD-1-Fc) [s⁻¹]	further results
B1	~1	~0.7	~0.2	0.247	0.0593	~0.2															
B2	~0.7	~0.6	~0.1	0.296	0.0927	~0.3															
B3	~0.8	~0.8	~0.2	0.457	0.0878	~0.3															
B4	~1	~2	~0.3	0.283	0.00909	~0.3															
B5							5.71	2.91	0.000583	200000	0.291	0.572	1.26	0.149	3.22	0.000693	215000	0.373	2.81	0.000355	IC50, Promega blockade bioassay [8]: 31.2 nM; IC50, Promega blockade bioassay [9]: 1.13 nM; kon (hPD-1-Fc): 126000 M⁻¹ s⁻¹; IC50 [17]: 0.464 nM; EC50 [18]: 0.411 nM
B6							6.01	2.73	0.000905	333000	0.14	0.304	0.987	0.146	2.83	0.00107	375000	0.253	1.67	0.000401	kon (hPD-1-Fc): 240000 M⁻¹ s⁻¹; IC50 [17]: 0.442 nM; EC50 [18]: 0.433 nM
